This is an account of results in patent US20110250130A1 (AbbVie / Abbott, published 2011).

A word on the Kd: it is the free concentration of one partner at which half of the binding sites on the other are occupied at equilibrium, for simple one-to-one binding. As usually defined, the koff is a measure of how fast the partners let go of each other. A word on the kon: it is a measure of how fast the partners come together.

B1: AB253 (antibody, V domains shown)
VH: EVQLVESGGGLVQPGGSLRLSCAASGFTFSDYGVNWVRQAPGKGLEWVSMIWGDGSTDYDSTLKSRFTISRDNSKNTLYLQMNSLRAEDTAVYYCAREWHHGPVAYWGQGTLVTVSS
VL: DIQMTQSPSSLSASVGDRVTITCKASQAVSSAVAWYQQKPGKSPKLLIYWASTRHTGVPSRFSGSGSGTDFTLTISSLQPEDFATYYCQQHYSTPFTFGQGTKLEIK
notes: also called hMAK195VH.2 / hMAK195VL.1a
B2: AB262 (antibody, V domains shown)
VH: B1 VH with F29L, R71K
VL: EIVMTQSPATLSLSPGERATLSCKASQAVSSAVAWYQQKPGQAPRLLIYWASTRHTGIPARFSGSGSGTDFTLTISSLQPEDFAVYYCQQHYSTPFTFGQGTKLEIK
notes: also called hMAK195VH.2b / hMAK195VL.2
B3: AB255 (antibody, V domains shown)
VH: B1 VH
VL: B2 VL with A43S, I58V
notes: also called hMAK195VH.2 / hMAK195VL.2a
B4: AB254 (antibody, V domains shown)
VH: B1 VH
VL: B2 VL
notes: also called hMAK195VH.2 / hMAK195VL.2
B5: AB257 (antibody, V domains shown)
VH: B1 VH with A24V, F29L, V48L, S49G, F67L, R71K, N76S, L78I
VL: B1 VL
notes: also called hMAK195VH.2a / hMAK195VL.1a
B6: AB256 (antibody, V domains shown)
VH: B1 VH with A24V, F29L, V48L, S49G, F67L, R71K, N76S, L78I
VL: B1 VL with S43A
notes: also called hMAK195VH.2a / hMAK195VL.1
B7: AB258 (antibody, V domains shown)
VH: B1 VH with A24V, F29L, V48L, S49G, F67L, R71K, N76S, L78I
VL: B2 VL
notes: also called hMAK195VH.2a / hMAK195VL.2
B8: AB259 (antibody, V domains shown)
VH: B1 VH with A24V, F29L, V48L, S49G, F67L, R71K, N76S, L78I
VL: B2 VL with A43S, I58V
notes: also called hMAK195VH.2a / hMAK195VL.2a
B9: AB263 (antibody, V domains shown)
VH: B1 VH with F29L, R71K
VL: B2 VL with A43S, I58V
notes: also called hMAK195VH.2b / hMAK195VL.2a
B10: AB261 (antibody, V domains shown)
VH: B1 VH with F29L, R71K
VL: B1 VL
notes: also called hMAK195VH.2b / hMAK195VL.1a

Residue numbers refer to the chain shown, from its start.

The target of one test is T1, Recombinant Human TNF-α/TNFSF1A (human, UniProt P01375 77-233).
T1 construct: Bought reagent (R&D Systems 210-TA); also called hTNF-α; huTNF-α
T1 sequence (P01375 77-233 limits assumed): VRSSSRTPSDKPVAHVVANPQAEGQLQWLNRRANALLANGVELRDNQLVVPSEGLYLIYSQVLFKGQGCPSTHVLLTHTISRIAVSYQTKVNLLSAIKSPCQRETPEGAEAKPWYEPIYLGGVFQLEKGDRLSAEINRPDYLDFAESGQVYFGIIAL
In words: SPR (Biacore), antibody captured, TNF-α in solution. The procedure:
The BIACORE assay (Biacore, Inc. Piscataway, N.J.) determines the affinity of antibodies with kinetic measurements of on-rate and off-rate constants. Binding of antibodies to a target antigen (for example, a purified recombinant target antigen) is determined by surface plasmon resonance-based measurements with a Biacore® 1000 or 3000 instrument (Biacore® AB, Uppsala, Sweden) using running HBS-EP (10 mM HEPES [pH 7.4], 150 mM NaCl, 3 mM EDTA, and 0.005% surfactant P20) at 25° C. All chemicals are obtained from Biacore® AB (Uppsala, Sweden) or otherwise from a different source as described in the text. For example, approximately 5000 RU of goat anti-mouse IgG, (Fcγ), fragment specific polyclonal antibody (Pierce Biotechnology Inc, Rockford, Ill., US) diluted in 10 mM sodium acetate (pH 4.5) is directly immobilized across a CM5 research grade biosensor chip using a standard amine coupling kit according to manufacturer's instructions and procedures at 25 μg/ml. Unreacted moieties on the biosensor surface are blocked with ethanolamine. Modified carboxymethyl dextran surface in flowcell 2 and 4 is used as a reaction surface. Unmodified carboxymethyl dextran without goat anti-mouse IgG in flow cell 1 and 3 is used as the reference surface. For kinetic analysis, rate equations derived from the 1:1 Langmuir binding model are fitted simultaneously to association and dissociation phases of all eight injections (using global fit analysis) with the use of Biaevaluation 4.0.1 software. Purified antibodies are diluted in HEPES-buffered saline for capture across goat anti-mouse IgG specific reaction surfaces. Antibodies to be captured as a ligand (25 μg/ml) are injected over reaction matrices at a flow rate of 5 μl/minute. The association and dissociation rate constants, kₒₙ (M⁻¹s⁻¹) and koff (s⁻¹), are determined under a continuous flow rate of 25 μl/minute. Rate constants are derived by making kinetic binding measurements at different antigen concentrations ranging from 10-200 nM. The equilibrium dissociation constant (M) of the reaction between antibodies and the target antigen is then calculated from the kinetic rate constants by the following formula: KD=koff/kₒₙ. Binding is recorded as a function of time and kinetic rate constants are calculated. In this assay, on-rates as fast as 10⁶ M⁻¹s⁻¹ and off-rates as slow as 10⁻⁶ s⁻¹ can be measured.
For B1, the Kd amounted to 0.0733 nM, the koff is 0.000221 s⁻¹ and the kon stood at 3.02e+06 M⁻¹ s⁻¹.
On to B2, for which the Kd came to 0.136 nM, the koff was 0.00029 s⁻¹ and the association rate constant (kon) stood at 2.14e+06 M⁻¹ s⁻¹.
On to B3, for which the Kd is 0.148 nM, the koff is 0.000384 s⁻¹ and the on-rate (kon) was 2.62e+06 M⁻¹ s⁻¹.
Turning to B4, the Kd worked out at 0.12 nM, the koff came to 0.000287 s⁻¹ and the kon came to 2.4e+06 M⁻¹ s⁻¹.
On to B5, for which the Kd is 0.062 nM, the off-rate constant (koff) is 0.000217 s⁻¹ and the kon is 3.56e+06 M⁻¹ s⁻¹.
As to B6, the Kd amounted to 0.0505 nM, the off-rate constant (koff) came to 0.000177 s⁻¹ and the kon stood at 3.54e+06 M⁻¹ s⁻¹.
With B7, the Kd turned out to be 0.0816 nM, the koff was 0.000244 s⁻¹ and the kon was 3.04e+06 M⁻¹ s⁻¹.
On to B8, for which the dissociation constant (Kd) worked out at 0.0677 nM, the off-rate constant (koff) was found to be 0.000203 s⁻¹ and the kon amounted to 3e+06 M⁻¹ s⁻¹.
Take B9: the Kd amounted to 0.169 nM, the dissociation rate constant (koff) is 0.000273 s⁻¹ and the on-rate constant (kon) is 1.61e+06 M⁻¹ s⁻¹.
B10: the Kd stood at 0.122 nM, the dissociation rate constant (koff) was 0.000285 s⁻¹ and the kon came to 2.36e+06 M⁻¹ s⁻¹.

The target of the next test is T1, Recombinant Human TNF-α/TNFSF1A. As to the kind of experiment: cell-based or functional assay.
With B1, the “TNF-α neutralization assay IC50 (nM), L929 cells” value (“TNF-α neutralization assay IC50” for short) is 0.279 nM.
In the case of B2, the “TNF-α neutralization assay IC50” value amounted to 0.218 nM.
In the case of B3, the “TNF-α neutralization assay IC50” value is 0.477 nM.
For the molecule B4, the “TNF-α neutralization assay IC50” value was 0.799 nM.
For B5, the “TNF-α neutralization assay IC50” value was determined as 0.077 nM.
With B6, the “TNF-α neutralization assay IC50” value is 0.058 nM.
As to B7, the “TNF-α neutralization assay IC50” value turned out to be 0.078 nM.
Same read-out and setting: for B8 the value was 0.071 nM; for B9, 0.193 nM.
In the case of B10, the “TNF-α neutralization assay IC50” value came out at 0.187 nM.
